According to PMC5434536, “ING3 promotes prostate cancer growth by activating the androgen receptor” (BMC Medicine, 2017):

Molecular target: T1, HA-tagged TIP60 (pCIN4-FLAG-HA-TIP60) (UniProt Q92993 1-513)
T1 construct: TIP60 from the plasmid pCIN4-FLAG-HA-TIP60 (gift from Dr. Wei Gu)
Assay: co-IP; cells co-transfected with AR, TIP60 and increasing amounts of ING3 plasmid + 10 nM MB for 24 h; AR or TIP60 immunoprecipitated with anti-AR or HA-affinity beads
Conditions: partners not purified

T1 sequence (Q92993 whole entry): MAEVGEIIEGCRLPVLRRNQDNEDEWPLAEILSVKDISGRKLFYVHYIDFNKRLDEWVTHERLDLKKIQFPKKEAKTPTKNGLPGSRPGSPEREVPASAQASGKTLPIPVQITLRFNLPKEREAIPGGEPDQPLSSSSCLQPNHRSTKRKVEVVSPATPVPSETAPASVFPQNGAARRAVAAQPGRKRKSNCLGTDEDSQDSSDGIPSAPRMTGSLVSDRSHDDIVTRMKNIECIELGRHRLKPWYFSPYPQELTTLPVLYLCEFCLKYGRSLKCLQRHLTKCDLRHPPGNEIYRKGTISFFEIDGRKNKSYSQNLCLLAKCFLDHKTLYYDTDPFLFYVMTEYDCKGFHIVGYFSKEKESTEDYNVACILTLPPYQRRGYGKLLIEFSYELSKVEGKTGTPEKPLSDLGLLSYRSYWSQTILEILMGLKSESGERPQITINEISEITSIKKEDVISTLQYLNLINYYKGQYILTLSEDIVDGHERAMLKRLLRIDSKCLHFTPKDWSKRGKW

fold increase of the AR-TIP60 association (ratio AR:HA-TIP60) with co-transfected ING3 against without: ~8 fold
B1: Myc-tagged androgen receptor (pCMV-3myc-AR) (receptor, UniProt P10275 1-920, looked up)
chain: MEVQLGLGRVYPRPPSKTYRGAFQNLFQSVREVIQNPGPRHPEAASAAPPGASLLLLQQQQQQQQQQQQQQQQQQQQQQQETSPRQQQQQQGEDGSPQAHRRGPTGYLVLDEEQQPSQPQSALECHPERGCVPEPGAAVAASKGLPQQLPAPPDEDDSAAPSTLSLLGPTFPGLSSCSADLKDILSEASTMQLLQQQQQEAVSEGSSSGRAREASGAPTSSKDNYLGGTSTISDNAKELCKAVSVSMGLGVEALEHLSPGEQLRGDCMYAPLLGVPPAVRPTPCAPLAECKGSLLDDSAGKSTEDTAEYSPFKGGYTKGLEGESLGCSGSAAAGSSGTLELPSTLSLYKSGALDEAAAYQSRDYYNFPLALAGPPPPPPPPHPHARIKLENPLDYGSAWAAAAAQCRYGDLASLHGAGAAGPGSGSPSAAASSSWHTLFTAEEGQLYGPCGGGGGGGGGGGGGGGGGGGGGGGEAGAVAPYGYTRPPQGLAGQESDFTAPDVWYPGGMVSRVPYPSPTCVKSEMGPWMDSYSGPYGDMRLETARDHVLPIDYYFPPQKTCLICGDEASGCHYGALTCGSCKVFFKRAAEGKQKYLCASRNDCTIDKFRRKNCPSCRLRKCYEAGMTLGARKLKKLGNLKLQEEGEASSTTSPTEETTQKLTVSHIEGYECQPIFLNVLEAIEPGVVCAGHDNNQPDSFAALLSSLNELGERQLVHVVKWAKALPGFRNLHVDDQMAVIQYSWMGLMVFAMGWRSFTNVNSRMLYFAPDLVFNEYRMHKSRMYSQCVRMRHLSQEFGWLQITPQEFLCMKALLLFSIIPVDGLKNQKFFDELRMNYIKELDRIIACKRKNPTSCSRRFYQLTKLLDSVQPIARELHQFTFDLLIKSHMVSVDFPEMMAEIISVQVPKILSGKVKPIYFHTQ
notes: androgen receptor from the plasmid pCMV-3myc-AR (gift from Dr. Marja Nevalainen); pCMV-3myc-AR is the only full-length AR plasmid named; also called AR-Myc; Myc-tagged AR; source: HEK293T, transfected, in lysate
